Target: chicken skeletal muscle actin (chicken) (UniProt P68139)
Test: SEC; 20 uM chicken G-actin mixed with 2DGel at ratios 1:1, 1:2 and 2:1 in 1X KMI-Ca buffer (50 mM KCl, 10 mM imidazole, 1 mM MgCl2, 1 mM CaCl2), 30 min, Enrich SEC 650; peak fractions analysed by SDS-PAGE

Substance | stoichiometry N (actin per MKD1-2DGel) | stoichiometry N (actin per Heim2DGel)
MKD1-2DGel (two-domain gelsolin of Candidatus Prometheoarchaeum syntrophicum MK-D1) (natural protein) | 2 | –
Heim2DGel (two-domain gelsolin of Heimdallarchaeota LC_3) (natural protein) | – | 1

Source: publication PMC9433394
